Entries after “also recorded” stand apart in the source; their conditions may differ.
B1: soybean trypsin inhibitor: soybean trypsin inhibitor (protein, UniProt P01070 25-205, looked up)
Trypsin inhibitor A: DFVLDNEGNPLENGGTYYILSDITAFGGIRAAPTGNERCPLTVVQSRNELDKGIGTIISSPYRIRFIAEGHPLSLKFDSFAVIMLCVGIPTEWSVVEDLPEGPAVKIGENKDAMDGWFRLERVSDDEFNNYKLVFCPQQAEDDKCGDIGISIDHDDGTRRLVVSKNKPLVVQFQKLDKESL
B2: papain: proteolytic enzyme used to pretreat the membrane (protein, UniProt P00784 134-345, looked up)
Papain: IPEYVDWRQKGAVTPVKNQGSCGSCWAFSAVVTIEGIIKIRTGNLNEYSEQELLDCDRRSYGCNGGYPWSALQLVAQYGIHYRNTYPYEGVQRYCRSREKGPYAAKTDGVRQVQPYNEGALLYSIANQPVSVVLEAAGKDFQLYRGGIFVGPCGNKVDHAVAAVGYGPNYILIKNSWGTGWGENGYIRIKRGTGNSYGVCGLYTSSFYPVKN
B3: proteinase K: proteolytic enzyme used to pretreat the membrane (protein, UniProt P06873 106-384, looked up)
Proteinase K: AAQTNAPWGLARISSTSPGTSTYYYDESAGQGSCVYVIDTGIEASHPEFEGRAQMVKTYYYSSRDGNGHGTHCAGTVGSRTYGVAKKTQLFGVKVLDDNGSGQYSTIIAGMDFVASDKNNRNCPKGVVASLSLGGGYSSSVNSAAARLQSSGVMVAVAAGNNNADARNYSPASEPSVCTVGASDRYDRRSSFSNYGSVLDIFGPGTSILSTWIGGSTRSISGTSMATPHVAGLAAYLMTLGKTTAASACRYIADTANKGDLSNIPFGTVNLLAYNNYQA

Assays:
[1] = tested on: trypsin-induced [Ca2+]i increase in swine ciliated epithelia; test: Soybean trypsin inhibitor on trypsin-induced [Ca2+]i increase; type: cell-based; conditions: inhibitor 10 U/mL; trypsin 10 U/mL
Description: (§1) According to a recent report, trypsin at 0.1 U/mL can increase [Ca^2+]i in guinea pig tracheal epithelia (Oshiro et al., Life Sci., 71:547-558 (2002)). Since the estimated trypsin concentration in the [Ca^2+]i experiments described herein is about 1 U/mL, we tested whether trypsin plays a role in the observed tryptic fragment-induced [Ca^2+]i increase.

[2] = tested on: tryptic Mhyo polypeptide fragment-induced [Ca2+]i increase in ciliated tracheal epithelia; test: Soybean trypsin inhibitor on tryptic Mhyo polypeptide fragment-induced [Ca2+]i increase; type: cell-based, swine; conditions: inhibitor 10 U/mL, incubated with preparation 37° C. 10 minutes
Procedure: FIG. 14 is a graph plotting [Ca^2+]i increase in porcine ciliated tracheal cells incubated with tryptic Mhyo membrane preparation pretreated with a soybean trypsin inhibitor (TI). […] TI was incubated with the tryptic membrane preparation at 37° C. for 10 minutes prior to administration. […] Each trace depicts [Ca^2+]i changes in one cell.
as §1

[3] = tested on: Mhyo membrane-induced [Ca2+]i increase in ciliated tracheal cells; test: Protease pretreatment of Mhyo membrane, effect on membrane-induced [Ca2+]i increase; type: cell-based, porcine; conditions: pretreatment of the membrane for 8 hours, 37° C.
Procedure: FIG. 6 contains four graphs plotting [Ca^2+]i response in ciliated porcine tracheal cells inoculated with Mhyo membranes. Each trace indicates the [Ca^2+]i changes in each tracheal cell. The arrows indicate when administration occurred. (A) The membrane preparation (100 μg/mL) increased [Ca^2+]i. (B) Digestion with proteinase K blocked the membrane-induced increase in [Ca^2+]i. The membrane (100 μg/0.1 mL PBS) was incubated with proteinase K (2 μg) at 37° C. for 8 hours before it was applied to tracheal cells in 0.9 mL Krebs-Ringer bicarbonate (KRB) buffer. (C) Digestion with trypsin potentiated the membrane-induced increase in [Ca^2+]i. The membrane (100 μg/0.1 mL PBS) was incubated with trypsin (6 μg) at 37° C. for 30 minutes before it was applied to tracheal cells in 0.9 mL KRB. […] The soluble protein was prepared by subjecting the trypsinized membrane to ultracentrifigation (100,000× g, 60 minutes) to obtain the supernatant.
Mycoplasmas lack cell walls and have only one type of membrane, the plasma membrane (Razin S. (1993) Mycoplasma membranes as models in membrane research (Chapter 2), In: Subcellular Biochemistry. Vol 20: Mycoplasma Cell Membranes, edited by Rottem S, Kahane I. Plenum Press, New York. pp. 1-28). The Mhyo membrane was prepared by osmotic lysis of the organisms and tested to determine if it increased [Ca^2+]i in ciliated tracheal cells. […]

| Molecule | effect on trypsin-induced [Ca2+]i increase [1] | effect on tryptic Mhyo polypeptide fragment-induced [Ca2+]i increase [2] | effect on tryptic Mhyo polypeptide fragment-induced [Ca2+]i increase ([2]; listed as TI) | effect of protease pretreatment on membrane-induced [Ca2+]i increase [3] |
| --- | --- | --- | --- | --- |
| B1 | inhibited | failed to block | failed to inhibit | – |
| B2 | – | – | – | abolished |
| B3 | – | – | – | blocked; also recorded: abolished |
